Assay results reported in IntAct's records for PubMed 19264842.

B1: 1-phosphatidylinositol 4,5-bisphosphate phosphodiesterase gamma-1 (Homo sapiens), P19174 (parent)
chain: MAGAASPCANGCGPGAPSDAEVLHLCRSLEVGTVMTLFYSKKSQRPERKTFQVKLETRQITWSRGADKIEGAIDIREIKEIRPGKTSRDFDRYQEDPAFRPDQSHCFVILYGMEFRLKTLSLQATSEDEVNMWIKGLTWLMEDTLQAPTPLQIERWLRKQFYSVDRNREDRISAKDLKNMLSQVNYRVPNMRFLRERLTDLEQRSGDITYGQFAQLYRSLMYSAQKTMDLPFLEASTLRAGERPELCRVSLPEFQQFLLDYQGELWAVDRLQVQEFMLSFLRDPLREIEEPYFFLDEFVTFLFSKENSVWNSQLDAVCPDTMNNPLSHYWISSSHNTYLTGDQFSSESSLEAYARCLRMGCRCIELDCWDGPDGMPVIYHGHTLTTKIKFSDVLHTIKEHAFVASEYPVILSIEDHCSIAQQRNMAQYFKKVLGDTLLTKPVEISADGLPSPNQLKRKILIKHKKLAEGSAYEEVPTSMMYSENDISNSIKNGILYLEDPVNHEWYPHYFVLTSSKIYYSEETSSDQGNEDEEEPKEVSSSTELHSNEKWFHGKLGAGRDGRHIAERLLTEYCIETGAPDGSFLVRESETFVGDYTLSFWRNGKVQHCRIHSRQDAGTPKFFLTDNLVFDSLYDLITHYQQVPLRCNEFEMRLSEPVPQTNAHESKEWYHASLTRAQAEHMLMRVPRDGAFLVRKRNEPNSYAISFRAEGKIKHCRVQQEGQTVMLGNSEFDSLVDLISYYEKHPLYRKMKLRYPINEEALEKIGTAEPDYGALYEGRNPGFYVEANPMPTFKCAVKALFDYKAQREDELTFIKSAIIQNVEKQEGGWWRGDYGGKKQLWFPSNYVEEMVNPVALEPEREHLDENSPLGDLLRGVLDVPACQIAIRPEGKNNRLFVFSISMASVAHWSLDVAADSQEELQDWVKKIREVAQTADARLTEGKIMERRKKIALELSELVVYCRPVPFDEEKIGTERACYRDMSSFPETKAEKYVNKAKGKKFLQYNRLQLSRIYPKGQRLDSSNYDPLPMWICGSQLVALNFQTPDKPMQMNQALFMTGRHCGYVLQPSTMRDEAFDPFDKSSLRGLEPCAISIEVLGARHLPKNGRGIVCPFVEIEVAGAEYDSTKQKTEFVVDNGLNPVWPAKPFHFQISNPEFAFLRFVVYEEDMFSDQNFLAQATFPVKGLKTGYRAVPLKNNYSEDLELASLLIKIDIFPAKENGDLSPFSGTSLRERGSDASGQLFHGRAREGSFESRYQQPFEDFRISQEHLADHFDSRERRAPRRTRVNGDNRL

Variants of: B1
Details: with rac1_human RAC1, P63000

Question: Which “effect of a mutation on the interaction” value does the source give for P842L here?
Answer: disrupting interaction
